Data on one molecule can be found in PMC4080450, “The pseudo GTPase CENP-M drives human kinetochore assembly” (eLife, 2014).

In the experiment the target is T1, CENP-H/His-CENP-K complex (human, UniProt Q9H3R5 1-247; Q9BS16 1-269).
T1 construct: human CENP-H, without any tag; human CENP-K; also called CENP-H/K complex; source: Tnao38 insect cells, co-expressed, purified; not shown: His6, N-terminal, kept
In words: SEC; analytical SEC co-elution (Superdex200 5/150 or Superose6 5/150), 4°C; proteins mixed in 50 µl, at least 2 hr on ice; SEC buffer with 150 mM NaCl. Conditions: both partners purified.

T1 sequence (Q9H3R5 whole entry, chain 1 of 2): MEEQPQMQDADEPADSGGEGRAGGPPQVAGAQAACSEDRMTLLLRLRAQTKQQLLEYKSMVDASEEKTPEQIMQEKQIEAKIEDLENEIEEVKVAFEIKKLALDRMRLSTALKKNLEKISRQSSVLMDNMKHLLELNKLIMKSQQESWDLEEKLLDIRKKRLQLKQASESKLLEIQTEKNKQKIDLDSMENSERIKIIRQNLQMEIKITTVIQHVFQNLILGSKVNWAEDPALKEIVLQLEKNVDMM
T1 sequence (Q9BS16 whole entry, chain 2 of 2): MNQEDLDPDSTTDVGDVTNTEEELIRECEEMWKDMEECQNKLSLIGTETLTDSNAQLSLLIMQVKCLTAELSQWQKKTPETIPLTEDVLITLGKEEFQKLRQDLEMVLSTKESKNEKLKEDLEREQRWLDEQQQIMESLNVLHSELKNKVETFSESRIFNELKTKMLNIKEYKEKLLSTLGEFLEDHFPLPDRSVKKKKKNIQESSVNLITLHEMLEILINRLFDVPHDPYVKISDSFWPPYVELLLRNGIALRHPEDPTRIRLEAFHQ

B1: His-CENP-I^57–281 (domain or fragment, human, UniProt Q92674 57-281, looked up)
chain: ADDQAEEDALQMAVGYFEKGPIKASQNKDKTLEKHLKTVENVAWKNGLASEEIDILLNIALSGKFGNAVNTRILKCMIPATVISEDSVVKAVSWLCVGKCSGSTKVLFYRWLVAMFDFIDRKEQINLLYGFFFASLQDDALCPYVCHLLYLLTKKENVKPFRVRKLLDLQAKMGMQPHLQALLSLYKFFAPALISVSLPVRKKIYFKNSENLWKTALLAVKQRNR
notes: CENP-I residues 57-281; no methods paragraph tells how this fragment was made; also called N-terminal region of CENP-I; I^N; source: recombinant, expressed in a soluble form
In the case of B1, the binding result is on record as “binds”.
